In patent US20120121504A1 (UNITED STATES OF AMERICA AS REPRESENTED BY THE SECRETARY …, published 2012):
Ends that are not written are not given here.

How the values were obtained:
human CD52 [1] = molecular target: T1, human CD52 (human, UniProt P31358 25-36, ends and bridges not checked); experiment: flow cytometry, MFI ratio grade (sample over background), allogeneic B cells
T1 construct: whole, on cells; also called CD52 antigen
T1 chain (looked up): GQNDTSQTSSPS

human CD52 [2] = molecular target: T1, human CD52; experiment: flow cytometry, MFI ratio grade (sample over background), third party B cells

B1: alemtuzumab (humanized anti-human CD52 mAb with human IgG1 kappa constant domains) (antibody, V domains shown)
VH: QVQLQESGPGLVRPSQTLSLTCTVSGFTFTDFYMNWVRQPPGRGLEWIGFIRDKAKGYTTEYNPSVKGRVTMLVDTSKNQFSLRLSSVTAADTAVYYCAREGHTAAPFDYWGQGSLVTVSS
VL: DIQMTQSPSSLSASVGDRVTITCKASQNIDKYLNWYQQKPGKAPKLLIYNTNNLQTGVPSRFSGSGSGTDFTFTISSLQPEDIATYYCLQHISRPRTFGQGTKVEIKR
- MFI ratio (sample over background) (human CD52 [1]): > 100 ratio
- MFI ratio (sample over background) (human CD52 [2]): > 100 ratio
